B1: Homeobox protein cut-like 2, residues 895 to 963; numbered along this chain, O14529 (parent)
chain: EVDTLELTRQVKEKLAKNGICQRIFGEKVLGLSQGSVSDMLSRPKPWSKLTQKGREPFIRMQLWLSDQL

± gives the uncertainty stated by the source.

In this data set the parent is B1. Nature of the data set: abundance fitness (aPCA) (normalised: wild type 0, dead -1); higher = more abundant; growth selection in yeast, the domain comes from the species named. As to conditions: Homo sapiens.
As to EVDTLELTRQVKEKLAKNPICQRIFGEKVLGLSQGSVSDMLSRPKPWSKLTQKGREPFIRMQLWLSDQL [G19P], the abundance fitness is -0.005 ± 0.15.
The value for EVDTLELTRQVKEKLAKNSICQRIFGEKVLGLSQGSVSDMLSRPKPWSKLTQKGREPFIRMQLWLSDQL [G19S] was -0.01 ± 0.062; that for EVDTLELTRQVKEKLAKNNICQRIFGEKVLGLSQGSVSDMLSRPKPWSKLTQKGREPFIRMQLWLSDQL [G19N] was -0.007 ± 0.076.
The value for EVDTLELTRQVKEKLAKNVICQRIFGEKVLGLSQGSVSDMLSRPKPWSKLTQKGREPFIRMQLWLSDQL [G19V] was -0.417 ± 0.057; that for EVDTLELTRQVKEKLAKNEICQRIFGEKVLGLSQGSVSDMLSRPKPWSKLTQKGREPFIRMQLWLSDQL [G19E] was -0.46 ± 0.092.
In the case of EVDTLELTRQVKEKLAKNGGCQRIFGEKVLGLSQGSVSDMLSRPKPWSKLTQKGREPFIRMQLWLSDQL [I20G], the abundance fitness is -0.412 ± 0.057.
The value for EVDTLELTRQVKEKLAKNGDCQRIFGEKVLGLSQGSVSDMLSRPKPWSKLTQKGREPFIRMQLWLSDQL [I20D] was -0.415 ± 0.067.
The value for EVDTLELTRQVKEKLAKNGYCQRIFGEKVLGLSQGSVSDMLSRPKPWSKLTQKGREPFIRMQLWLSDQL [I20Y] was -0.179 ± 0.049; that for EVDTLELTRQVKEKLAKNGFCQRIFGEKVLGLSQGSVSDMLSRPKPWSKLTQKGREPFIRMQLWLSDQL [I20F] was -0.058 ± 0.04; that for EVDTLELTRQVKEKLAKNGRCQRIFGEKVLGLSQGSVSDMLSRPKPWSKLTQKGREPFIRMQLWLSDQL [I20R] was -0.409 ± 0.051.
Then EVDTLELTRQVKEKLAKNGCCQRIFGEKVLGLSQGSVSDMLSRPKPWSKLTQKGREPFIRMQLWLSDQL [I20C], with -0.269 ± 0.065.
In the case of EVDTLELTRQVKEKLAKNGSCQRIFGEKVLGLSQGSVSDMLSRPKPWSKLTQKGREPFIRMQLWLSDQL [I20S], the abundance fitness is -0.342 ± 0.038.
Take EVDTLELTRQVKEKLAKNGECQRIFGEKVLGLSQGSVSDMLSRPKPWSKLTQKGREPFIRMQLWLSDQL [I20E]: the abundance fitness is -0.575 ± 0.061.
Take EVDTLELTRQVKEKLAKNGPCQRIFGEKVLGLSQGSVSDMLSRPKPWSKLTQKGREPFIRMQLWLSDQL [I20P]: the abundance fitness was -0.226 ± 0.042.
For EVDTLELTRQVKEKLAKNGHCQRIFGEKVLGLSQGSVSDMLSRPKPWSKLTQKGREPFIRMQLWLSDQL [I20H], the abundance fitness was -0.382 ± 0.052.
The value for EVDTLELTRQVKEKLAKNGWCQRIFGEKVLGLSQGSVSDMLSRPKPWSKLTQKGREPFIRMQLWLSDQL [I20W] was -0.11 ± 0.077.
Then EVDTLELTRQVKEKLAKNGVCQRIFGEKVLGLSQGSVSDMLSRPKPWSKLTQKGREPFIRMQLWLSDQL [I20V], with -0.201 ± 0.036.
In the case of EVDTLELTRQVKEKLAKNGNCQRIFGEKVLGLSQGSVSDMLSRPKPWSKLTQKGREPFIRMQLWLSDQL [I20N], the abundance fitness was -0.453 ± 0.077.
Then EVDTLELTRQVKEKLAKNGQCQRIFGEKVLGLSQGSVSDMLSRPKPWSKLTQKGREPFIRMQLWLSDQL [I20Q], with -0.202 ± 0.046; and EVDTLELTRQVKEKLAKNGACQRIFGEKVLGLSQGSVSDMLSRPKPWSKLTQKGREPFIRMQLWLSDQL [I20A], with -0.535 ± 0.052; and EVDTLELTRQVKEKLAKNGMCQRIFGEKVLGLSQGSVSDMLSRPKPWSKLTQKGREPFIRMQLWLSDQL [I20M], with -0.023 ± 0.037.
The value for EVDTLELTRQVKEKLAKNGKCQRIFGEKVLGLSQGSVSDMLSRPKPWSKLTQKGREPFIRMQLWLSDQL [I20K] was -0.32 ± 0.051; that for EVDTLELTRQVKEKLAKNGIVQRIFGEKVLGLSQGSVSDMLSRPKPWSKLTQKGREPFIRMQLWLSDQL [C21V] was -0.174 ± 0.041.
Then EVDTLELTRQVKEKLAKNGINQRIFGEKVLGLSQGSVSDMLSRPKPWSKLTQKGREPFIRMQLWLSDQL [C21N], with 0.015 ± 0.088; and EVDTLELTRQVKEKLAKNGIFQRIFGEKVLGLSQGSVSDMLSRPKPWSKLTQKGREPFIRMQLWLSDQL [C21F], with -0.094 ± 0.15.
With EVDTLELTRQVKEKLAKNGIPQRIFGEKVLGLSQGSVSDMLSRPKPWSKLTQKGREPFIRMQLWLSDQL [C21P], the abundance fitness stood at 0.027 ± 0.057.
In the case of EVDTLELTRQVKEKLAKNGISQRIFGEKVLGLSQGSVSDMLSRPKPWSKLTQKGREPFIRMQLWLSDQL [C21S], the abundance fitness was determined as 0.082 ± 0.043.
The value for EVDTLELTRQVKEKLAKNGIMQRIFGEKVLGLSQGSVSDMLSRPKPWSKLTQKGREPFIRMQLWLSDQL [C21M] was -0.045 ± 0.039.
For the variant EVDTLELTRQVKEKLAKNGIRQRIFGEKVLGLSQGSVSDMLSRPKPWSKLTQKGREPFIRMQLWLSDQL [C21R], the abundance fitness was -0.087 ± 0.031.
As to EVDTLELTRQVKEKLAKNGIGQRIFGEKVLGLSQGSVSDMLSRPKPWSKLTQKGREPFIRMQLWLSDQL [C21G], the abundance fitness was -0.062 ± 0.036.
Then EVDTLELTRQVKEKLAKNGIWQRIFGEKVLGLSQGSVSDMLSRPKPWSKLTQKGREPFIRMQLWLSDQL [C21W], with -0.104 ± 0.035; and EVDTLELTRQVKEKLAKNGIAQRIFGEKVLGLSQGSVSDMLSRPKPWSKLTQKGREPFIRMQLWLSDQL [C21A], with -0.04 ± 0.038; and EVDTLELTRQVKEKLAKNGITQRIFGEKVLGLSQGSVSDMLSRPKPWSKLTQKGREPFIRMQLWLSDQL [C21T], with 0.093 ± 0.04.
Then EVDTLELTRQVKEKLAKNGIDQRIFGEKVLGLSQGSVSDMLSRPKPWSKLTQKGREPFIRMQLWLSDQL [C21D], with -0.103 ± 0.099.
Then EVDTLELTRQVKEKLAKNGIYQRIFGEKVLGLSQGSVSDMLSRPKPWSKLTQKGREPFIRMQLWLSDQL [C21Y], with -0.41 ± 0.097; and EVDTLELTRQVKEKLAKNGIKQRIFGEKVLGLSQGSVSDMLSRPKPWSKLTQKGREPFIRMQLWLSDQL [C21K], with -0.034 ± 0.039.
On to EVDTLELTRQVKEKLAKNGIIQRIFGEKVLGLSQGSVSDMLSRPKPWSKLTQKGREPFIRMQLWLSDQL [C21I], for which the abundance fitness was -0.115 ± 0.083.
The value for EVDTLELTRQVKEKLAKNGIEQRIFGEKVLGLSQGSVSDMLSRPKPWSKLTQKGREPFIRMQLWLSDQL [C21E] was -0.04 ± 0.043.
Then EVDTLELTRQVKEKLAKNGIHQRIFGEKVLGLSQGSVSDMLSRPKPWSKLTQKGREPFIRMQLWLSDQL [C21H], with -0.029 ± 0.081.

The values above are taken from the Human Domainome abundance scans (Beltran et al. 2025).
